Data reported in the array DNA melting data of Ke et al..

Test: melting temperature; melt of duplexes
Details: sodium 0.0675 M; strand 1 µM

Substance | Tm
CGACGTGCTATATGTGCTG+CAGCACATTGCGCACGTCG ((((((((...((((((((+))))))))...)))))))) | 47.4 °C
CGACGTGCTGGATGTGCTG+CAGCACATTTGGCACGTCG ((((((((...((((((((+))))))))...)))))))) | 51.8 °C
CGACGTGCGCCATGTGCTG+CAGCACATCTGGCACGTCG ((((((((...((((((((+))))))))...)))))))) | 47.4 °C
CGACGTGCCCCATGTGCTG+CAGCACATTCGGCACGTCG (((((((((..((((((((+))))))))..))))))))) | 51.5 °C
CGACGTGCACAATGTGCTG+CAGCACATCTCGCACGTCG ((((((((...((((((((+))))))))...)))))))) | 45.1 °C
CGACGTGCTCGATGTGCTG+CAGCACATTGTGCACGTCG ((((((((.(.((((((((+)))))))).).)))))))) | 51.5 °C
CGACGTGCGATATGTGCTG+CAGCACATCCGGCACGTCG ((((((((...((((((((+))))))))...)))))))) | 49.3 °C
CGACGTGCCACATGTGCTG+CAGCACATGGCGCACGTCG ((((((((..(((((((((+)))))))))..)))))))) | 54 °C
CGACGTGCGGAATGTGCTG+CAGCACATTCAGCACGTCG ((((((((.((((((((((+)))))))))).)))))))) | 60.2 °C
CGACGTGCGTAATGTGCTG+CAGCACATCGAGCACGTCG ((((((((...((((((((+))))))))...)))))))) | 53.1 °C
CGACGTGCAATATGTGCTG+CAGCACATCCGGCACGTCG ((((((((...((((((((+))))))))...)))))))) | 48.5 °C
CGACGTGCCACATGTGCTG+CAGCACATATAGCACGTCG ((((((((.(.((((((((+)))))))).).)))))))) | 48.4 °C
CGACGTGCCTGATGTGCTG+CAGCACATTGAGCACGTCG ((((((((...((((((((+))))))))...)))))))) | 51 °C
CGACGTGCTTTATGTGCTG+CAGCACATCGTGCACGTCG ((((((((...((((((((+))))))))...)))))))) | 42.3 °C
CGACGTGCTTTATGTGCTG+CAGCACATAGGGCACGTCG ((((((((..(((((((((+)))))))))..)))))))) | 51.1 °C
CGACGTGCGCTATGTGCTG+CAGCACATGTGGCACGTCG ((((((((...((((((((+))))))))...)))))))) | 50.8 °C
CGACGTGCCCGATGTGCTG+CAGCACATAGCGCACGTCG ((((((((.(.((((((((+)))))))).).)))))))) | 50.8 °C
CGACGTGCTATATGTGCTG+CAGCACATAATGCACGTCG ((((((((..(((((((((+)))))))))..)))))))) | 53 °C

Substance | Tm
CGACGTGCAGAATGTGCTG+CAGCACATTTGGCACGTCG ((((((((..(((((((((+)))))))))..)))))))) | 54.3 °C
CGACGTGCTCCATGTGCTG+CAGCACATGTAGCACGTCG (((((((((.(((((((((+))))))))).))))))))) | 56.3 °C
CGACGTGCACAATGTGCTG+CAGCACATACAGCACGTCG ((((((((...((((((((+))))))))...)))))))) | 45.4 °C
CGACGTGCACCATGTGCTG+CAGCACATCAAGCACGTCG ((((((((...((((((((+))))))))...)))))))) | 42.8 °C
CGACGTGCAAAATGTGCTG+CAGCACATTTCGCACGTCG ((((((((.((((((((((+)))))))))).)))))))) | 55.4 °C
CGACGTGCCAAATGTGCTG+CAGCACATACCGCACGTCG ((((((((...((((((((+))))))))...)))))))) | 47.3 °C
CGACGTGCAGGATGTGCTG+CAGCACATATAGCACGTCG ((((((((...((((((((+))))))))...)))))))) | 50.6 °C
CGACGTGCCACATGTGCTG+CAGCACATGTCGCACGTCG ((((((((.((((((((((+)))))))))).)))))))) | 56.4 °C
CGACGTGCAATATGTGCTG+CAGCACATTCGGCACGTCG ((((((((...((((((((+))))))))...)))))))) | 49.5 °C
CGACGTGCAGAATGTGCTG+CAGCACATTTCGCACGTCG ((((((((..(((((((((+)))))))))..)))))))) | 53.5 °C
CGACGTGCGAAATGTGCTG+CAGCACATTTGGCACGTCG ((((((((.((((((((((+)))))))))).)))))))) | 57.3 °C
CGACGTGCACAATGTGCTG+CAGCACATAGTGCACGTCG ((((((((((.((((((((+)))))))).)))))))))) | 53.5 °C
CGACGTGCGGTATGTGCTG+CAGCACATTATGCACGTCG ((((((((...((((((((+))))))))...)))))))) | 51.3 °C
CGACGTGCACAATGTGCTG+CAGCACATCGAGCACGTCG ((((((((.(.((((((((+)))))))).).)))))))) | 48.6 °C
CGACGTGCGCAATGTGCTG+CAGCACATATGGCACGTCG ((((((((...((((((((+))))))))...)))))))) | 50.7 °C
CGACGTGCCGCATGTGCTG+CAGCACATAGTGCACGTCG ((((((((...((((((((+))))))))...)))))))) | 46.8 °C
CGACGTGCTCAATGTGCTG+CAGCACATGTAGCACGTCG (((((((((..((((((((+))))))))..))))))))) | 52.8 °C
CGACGTGCCAAATGTGCTG+CAGCACATAAGGCACGTCG (((((((((..((((((((+))))))))..))))))))) | 54.4 °C
